Article PMC11500415, “Chemical inhibition of stomatal differentiation by perturbation of the master-regulatory bHLH heterodimer via an ACT-Like domain” (Nature Communications, 2024)
Several values for one entry are separate records, joined by “and”; a condition that tells them apart may be missing. Equal entries are not always repeated.

How the values were obtained:
[1] = system: Arabidopsis wild-type (WT) seedlings; experiment: Stomatal development bioassay, seedlings in liquid culture; assay type: in vivo; conditions: 50 μM
Protocol: Arabidopsis accession Columbia (Col-0) was used as wild-type. […] Their genotype and transcript reduction were confirmed. The presence of transgenes/mutant alleles were confirmed by genotyping. For liquid culture with Stomidazolone (AYSJ929, compound 3), the analogs (AYSJ1059 (compound 5) and AYSJ1061 (compound 6)), degraded compound lzx103 (compound 4), and SIM3* (compound 7), all compounds were dissolved in dimethyl sulfoxide (DMSO, Molecular biology grade, Fujifilm Wako, Japan 046-21981), Col-0 seeds were sown in 96-well plates (TL5003; True Line) containing 95 μL of 1/2 MS media containing 0.5% sucrose with rotary shaking at 140 rpm under continuous light at 22 °C. Five μL of compounds were dissolved in DMSO at 10 mM and diluted with liquid 1/2 MS media to 1 mM and added on 1-day-old seedlings (final concentration, 50 μM). Seedlings were incubated for 8 days, and at day 9 seedling abaxial cotyledons were observed through confocal microscopy. For liquid culture of scrm-D_S343 and scrm-D_S423, 1/2 MS liquid media without sucrose was used. For the solid culture, 0, 20, 50 or 100 μM Stomidazolone were solidified with low-melting agarose (5805S, PrimeGelTM Agarose LMT 1-20 K, TAKARA Bio). Briefly, 1/2 MS salt, 0.5% sucrose, and 0.8% low melting agarose were mixed in water and autoclaved. After cooling the medium at around 30 °C, Stomidazolone (500x, dissolved in DMSO) was added and poured into 90 mm petri dishes (Asnol Petri Dish JP φ90 x 15 mm, 3-1491-01, AS ONE). Col-0 seeds were sown on Stomidazolone-containing 1/2 MS agarose media and grown under continuous light for 9 days.
For confocal microscopy, cell peripheries of seedlings were visualized with propidium iodide (Sigma, P4170). Images were acquired using LSM800 or LSM700 (Zeiss) using a 20x lens. The GFP, YFP reporter and PI signals were detected with excitation at 488 nm and an emission filter of 410 to 546 nm, at 488 nm and an emission filter of 410 to 546 nm, and with excitation at 561 nm and 582–617 nm emission range, respectively. Raw data were collected with 1024 × 1024 pixel images. For qualitative image presentation, Adobe Photoshop CC was used to trim and uniformly adjust the contrast/brightness.
For quantitative analysis of the abaxial leaf epidermis, confocal images were taken on the days after germination as indicated in the Figure legends. Preparation of images was done as described previously[32],[70]. For counting epidermal cell types, stomatal density, stomatal precursor cells (meristemoids), total stomata-lineage cells (stomata and meristemoids) were calculated by counting cell types in an area of 0.4 mm^2 (0.63 mm × 0.63 mm) and plotted as per mm^2. A series of Z-stack confocal images was obtained to obtain images covering the epidermis and capturing GFP/YFP signal from the reporter lines. The area and the number of epidermal cells were quantified by using FIJI-ImageJ. Statistical analyses were performed using R ver. 4.0.2. Sample sizes (n) are indicated and defined in each legend. For the multiple sample comparison, 1-way ANOVA was performed followed by a post hoc Tukey HSD test. For the two-sample comparison, Student’s T-test was performed. Graphs were generated using R ggplot2 package. For all boxplots, each box represents IQR (interquartile range), in which top, middle line, and bottom indicating 75, 50, and 25 percentiles, respectively, and the bar representing maximum to minimal values. Each magenta dot represents jittered individual data point. The datapoints that go beyond the bar are outliers, which are indicated as black dots. If the data point is greater than Q3 + 1.5*IQR (above the third quartile is greater than 1.5 times of the interquartile range) or less than Q1 − 1.5*IQR, that data point is classified as outlier. The color of Boxplot graph was based on ColorBrewer.org. The value of n, the number of each experiment or samples, the means of error bars, and how statistical significance was defined are indicated in a relevant figure legend. […]

[2] = system: Commelina benghalensis stomatal opening induced by light; experiment: Measurement of stomatal opening; assay type: in vivo; conditions: leaf discs 1-6
Protocol: The experiments were performed as described previously[30],[68]. Briefly, Stomidazolone or ABA were added to a multi-well plate with basal buffer [5 mM MES/bistrispropane (pH 6.5), 50 mM KCl, and 0.1 mM CaCl2] to be diluted to a final concentration of 50 or 20 µM, respectively. C. benghalensis plants were incubated in the dark overnight; then, 4 mm diameter leaf discs were excised from fully expanded leaves using a hole punch (Biopsy Punch, Kai Medical). Samples were immersed in a basal buffer containing compounds for 30 min before being exposed to light (150 µmol m^−2 s^−1 red light and 50 µmol m^−2 s^−1 blue light) for 3 h. The stomatal apertures were observed using a stereoscopic microscope (BX43; Olympus). The microscopic images were acquired with a charge-coupled device (CCD) camera (DP27; Olympus), followed by autofocus image processing using cellSens standard software (Olympus). Measurement of stomatal apertures of C. benghalensis was performed by using an automation program, DeepStomata[69].

[3] = molecular target: T1, SCREAM (SCRM), recombinant full-length protein (1-494) (A. thaliana, UniProt Q9LSE2 1-494); experiment: BLI; SCRM with MUTE or MUTE mutants in the presence of Stomidazolone (3) (MUTE pre-incubated); Octet Red96, anti-GST probes loaded with 500 nM GST-tagged protein; 30 °C; 1x PBS, 2% DMSO, 0.02% Tween20; 1:1 model; KD (SS) from steady-state analysis; conditions: both partners purified
T1 construct: SCRM (ICE1), A. thaliana, residues 1-494; called full-length in the results; The methods describe thrombin removal of GST for all recombinant proteins; For the BLI runs of SCRM with MUTE one partner must have kept GST (anti-GST probes); also called ICE1; source: E. coli BL21, purified (glutathione resin, thrombin digestion, Superdex-200); not shown: GST, N-terminal, cleaved
T1 sequence (looked up): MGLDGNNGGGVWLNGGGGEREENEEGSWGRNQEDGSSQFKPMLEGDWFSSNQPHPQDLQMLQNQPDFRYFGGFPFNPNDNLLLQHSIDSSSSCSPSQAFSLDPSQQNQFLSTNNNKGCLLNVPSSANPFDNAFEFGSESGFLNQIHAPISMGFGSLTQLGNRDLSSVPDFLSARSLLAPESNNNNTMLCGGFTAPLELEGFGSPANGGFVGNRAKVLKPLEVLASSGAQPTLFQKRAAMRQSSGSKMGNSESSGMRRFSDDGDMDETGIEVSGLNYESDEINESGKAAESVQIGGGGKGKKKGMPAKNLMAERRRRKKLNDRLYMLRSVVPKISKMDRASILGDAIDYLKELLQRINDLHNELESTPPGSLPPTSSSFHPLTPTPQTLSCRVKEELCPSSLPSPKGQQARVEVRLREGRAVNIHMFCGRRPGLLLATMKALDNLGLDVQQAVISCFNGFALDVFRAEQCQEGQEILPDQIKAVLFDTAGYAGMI

[4] = molecular target: T1, SCREAM (SCRM), recombinant full-length …; experiment: BLI; SCRM with MUTE in the presence of AYSJ1061 (6); Octet Red96, anti-GST probes loaded with 500 nM GST-tagged protein; 30 °C; 1x PBS, 2% DMSO, 0.02% Tween20; 1:1 model; KD (SS) from steady-state analysis; conditions: both partners purified
[5] = molecular target: T1, SCREAM (SCRM), recombinant full-length …; experiment: BLI; SCRM with MUTE or MUTE mutants, no compound; Octet Red96, anti-GST probes loaded with 500 nM GST-tagged protein; 30 °C; 1x PBS, 2% DMSO, 0.02% Tween20; 1:1 model; KD (SS) from steady-state analysis; conditions: both partners purified
[6] = molecular target: T1, SCREAM (SCRM), recombinant full-length …; experiment: BLI; SCRM with MUTE in the presence of AYSJ1059 (5); Octet Red96, anti-GST probes loaded with 500 nM GST-tagged protein; 30 °C; 1x PBS, 2% DMSO, 0.02% Tween20; 1:1 model; KD (SS) from steady-state analysis; conditions: both partners purified

Row | Molecule | Kd [3] | koff [3] | kon [3] | Kd [5] | koff [5] | kon [5] | also measured
1 | N=C(NS(=O)(=O)c1ccccc1)c1ccccc1 [lzx103] | – | – | – | – | – | – | effect on stomatal development (in words) ([1]; WT seedlings, liquid culture): did not cause any effects; Number of stomata per 1 mm2 of cotyledon abaxial epidermis ([1]; WT, single seedlings n=8 (Fig. S3d), listed as Izx-103): 199 per 1 mm2 and 211 per 1 mm2 and 202 per 1 mm2 and 216 per 1 mm2 and 194 per 1 mm2 and 192 per 1 mm2 and 175 per 1 mm2
2 | CC1=CC(=O)CC(C)(C)C1(O)/C=C/C(C)=C\C(=O)O (centres unmarked) [ABA, reference compound] | – | – | – | – | – | – | stomatal movement, value per image ([2]; ABA 20 µM, 2 images per leaf disc): 0; stomatal movement, mean from 2 images from 1 leaf disc ([2]; ABA 20 µM): 0
3 | O=C1C(c2ccccc2)=NC(NS(=O)(=O)c2ccccc2)(c2ccccc2)N1S(=O)(=O)c1ccccc1 (racemic) [AYST929] | – | – | – | – | – | – | stomatal movement, mean from 2 images from 1 leaf disc ([2]; AYST929 50 µM): 12.3654 and 10.3065 and 11.5398 and 6.9444 and 13.0998 and 7.007

Second part, led by results:

Row | Kd [3] | koff [3] | kon [3] | Kd [5] | koff [5] | kon [5] | Molecule | also measured
4 | 755 ± 9.5 nM | 0.00859 s⁻¹ | 11400 M⁻¹ s⁻¹ | 6.8 ± 0.5 nM | 0.000147 s⁻¹ | 24200 M⁻¹ s⁻¹ | MUTE, recombinant full-length protein (1-202), as used in BLI with SCRM (natural protein, A. thaliana, UniProt Q9M8K6 1-202, looked up, BLI probes were anti-GST and loaded with 500 nM GST-tagged protein; source: E. coli BL21, purified (glutathione resin)) MSHIAVERNRRRQMNEHLKSLRSLTPCFYIKRGDQASIIGGVIEFIKELQQLVQVLESKKRRKTLNRPSFPYDHQTIEPSSLGAATTRVPFSRIENVMTTSTFKEVGACCNSPHANVEAKISGSNVVLRVVSRRIVGQLVKIISVLEKLSFQVLHLNISSMEETVLYFFVVKIGLECHLSLEELTLEVQKSFVSDEVIVSTN | Kd [4]: 12.8 ± 0.8 nM; koff [4]: 0.000234 s⁻¹; kon [4]: 18200 M⁻¹ s⁻¹; Kd [6]: 8.8 ± 0.6 nM; koff [6]: 0.000188 s⁻¹; kon [6]: 21300 M⁻¹ s⁻¹
5 | 30.5 ± 4.8 nM | 0.000634 s⁻¹ | 20700 M⁻¹ s⁻¹ | 11.5 ± 2.6 nM | 0.000334 s⁻¹ | 29000 M⁻¹ s⁻¹ | MUTE_E162A_E163A, recombinant (natural protein, A. thaliana, UniProt Q9M8K6 1-202, looked up, MUTE, A. thaliana, with E162A and E163A; source: E. coli BL21, purified (glutathione resin)) MSHIAVERNRRRQMNEHLKSLRSLTPCFYIKRGDQASIIGGVIEFIKELQQLVQVLESKKRRKTLNRPSFPYDHQTIEPSSLGAATTRVPFSRIENVMTTSTFKEVGACCNSPHANVEAKISGSNVVLRVVSRRIVGQLVKIISVLEKLSFQVLHLNISSMAATVLYFFVVKIGLECHLSLEELTLEVQKSFVSDEVIVSTN | –
6 | 96.5 ± 12.8 nM | 0.000336 s⁻¹ | 3480 M⁻¹ s⁻¹ | 26.5 ± 3.7 nM | 0.000414 s⁻¹ | 15600 M⁻¹ s⁻¹ | MUTE_R133A_R134A_E162A_E163A, recombinant (natural protein, A. thaliana, UniProt Q9M8K6 1-202, looked up, MUTE, A. thaliana, with R133A, R134A, E162A and E163A; source: E. coli BL21, purified (glutathione resin)) MSHIAVERNRRRQMNEHLKSLRSLTPCFYIKRGDQASIIGGVIEFIKELQQLVQVLESKKRRKTLNRPSFPYDHQTIEPSSLGAATTRVPFSRIENVMTTSTFKEVGACCNSPHANVEAKISGSNVVLRVVSAAIVGQLVKIISVLEKLSFQVLHLNISSMAATVLYFFVVKIGLECHLSLEELTLEVQKSFVSDEVIVSTN | –
7 | 62.5 ± 8.2 nM | 0.000834 s⁻¹ | 13300 M⁻¹ s⁻¹ | 22.5 ± 1.8 nM | 0.000256 s⁻¹ | 11300 M⁻¹ s⁻¹ | MUTE_R133A_R134A, recombinant (natural protein, A. thaliana, UniProt Q9M8K6 1-202, looked up, MUTE, A. thaliana, with R133A and R134A; source: E. coli BL21, purified (glutathione resin)) MSHIAVERNRRRQMNEHLKSLRSLTPCFYIKRGDQASIIGGVIEFIKELQQLVQVLESKKRRKTLNRPSFPYDHQTIEPSSLGAATTRVPFSRIENVMTTSTFKEVGACCNSPHANVEAKISGSNVVLRVVSAAIVGQLVKIISVLEKLSFQVLHLNISSMEETVLYFFVVKIGLECHLSLEELTLEVQKSFVSDEVIVSTN | –
